In US5811098, “Antibodies to HER4, human receptor tyrosine kinase” (Bristol-Myers Squibb Company, dated 1998):

T1: p45, HER4 ligand purified from HepG2 conditioned medium (human, UniProt Q02297, 125I-labeled Bolton-Hunter reagent (in the binding and cross-linking assays))
T1 sequence: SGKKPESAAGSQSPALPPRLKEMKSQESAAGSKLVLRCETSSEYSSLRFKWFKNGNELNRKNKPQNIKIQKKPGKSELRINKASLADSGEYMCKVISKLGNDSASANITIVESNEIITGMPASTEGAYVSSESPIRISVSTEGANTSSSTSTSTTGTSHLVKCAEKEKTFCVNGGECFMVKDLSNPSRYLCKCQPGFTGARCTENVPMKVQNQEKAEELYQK


Legend:
[1] = biological target: T1, p45, HER4 ligand purified from HepG2 …; experiment: binding of 125I-p45 to CHO/HER4 cell monolayers, 2 h at 4° C, Scatchard analysis (LIGAND program)
HER2/p185erbB2 (human) = HER2/p185erbB2 (human) (human); experiment: cell-based or functional assay
HER3/p160erbB3 (human) = HER3/p160erbB3 (human) (human); experiment: cell-based or functional assay

| Binder | Kd [1] | EC50 of cytotoxicity, H3396 cells (HER2/p185erbB2 (human)) | EC50 of cytotoxicity, L2987 cells (HER2/p185erbB2 (human)) | EC50 of cytotoxicity, SK0V3 cells (HER2/p185erbB2 (human)) | EC50 of cytotoxicity, H3396 cells (HER3/p160erbB3 (human)) | EC50 of cytotoxicity, L2987 cells (HER3/p160erbB3 (human)) | EC50 of cytotoxicity, SK0V3 cells (HER3/p160erbB3 (human)) |
| --- | --- | --- | --- | --- | --- | --- | --- |
| HER4/p180erbB4 (human prototype HER4) (receptor) QSVCAGTENKLSSLSDLEQQYRALRKYYENCEVVMGNLEITSIEHNRDLSFLRSVREVTGYVLVALNQFRYLPLENLRIIRGTKLYEDRYALAIFLNYRKDGNFGLQELGLKNLTEILNGGVYVDQNKFLCYADTIHWQDIVRNPWPSNLTLVSTNGSSGCGRCHKSCTGRCWGPTENHCQTLTRTVCAEQCDGRCYGPYVSDCCHRECAGGCSGPKDTDCFACMNFNDSGACVTQCPQTFVYNPTTFQLEHNFNAKYTYGAFCVKKCPHNFVVDSSSCVRACPSSKMEVEENGIKMCKPCTDICPKACDGIGTGSLMSAQTVDSSNIDKFINCTKINGNLIFLVTGIHGDPYNAIEAIDPEKLNVFRTVREITGFLNIQSWPPNMTDFSVFSNLVTIGGRVLYSGLSLLILKQQGITSLQFQSLKEISAGNIYITDNSNLCYYHTINWTTLFSTINQRIVIRDNRKAENCTAEGMVCNHLCSSDGCWGPGPDQCLSCRRFSRGRICIESCNLYDGEFREFENGSICVECDPQCEKMEDGLLTCHGPGPDNCTKCSHFKDGPNCVEKCPDGLQGANSFIFKYADPDRECHPCHPNCTQGCNGPTSHDCIYYPWTGHSTLPQHARTPLIAAGVIGGLFILVIVGLTFAVYVRRKSIKKKRALRRFLETELVEPLTPSGTAPNQAQLRILKETELKRVKVLGSGAFGTVYKGIWVPEGETVKIPVAIKILNETTGPKANVEFMDEALIMASMDHPHLVRLLGVCLSPTIQLVTQLMPHGCLLEYVHEHKDNIGSQLLLNWCVQIAKGMMYLEERRLVHRDLAARNVLVKSPNHVKITDFGLARLLEGDEKEYNADGGKMPIKWMALECIHYRKFTHQSDVWSYGVTIWELMTFGGKPYDGIPTREIPDLLEKGERLPQPPICTIDVYMVMVKCWMIDADSRPKFKELAAEFSRMARDPQRYLVIQGDDRMKLPSPNDSKFFQNLLDEEDLEDMMDAEEYLVPQAFNIPPPIYTSRARIDSNRSEIGHSPPPAYTPMSGNQFVYRDGGFAAEQGVSVPYRAPTSTIPEAPVAQGATAEIFDDSCCNGTLRKPVAPHVQEDSSTQRYSADPTVFAPERSPRGELDEEGYMTPMRDKPKQEYLNPVEENPFVSRRKNGDLQALDNPEYHNASNGPPKAEDEYVNEPLYLNTFANTLGKAEYLKNNILSMPEKAKKAFDNPDYWNHSLPPRSTLQHPDYLQEYSTKYFYKQNGRIRPIVAENPEYLSEFSLKPGTVLPPPPYRHRNTVV | ~5 nM | – | – | – | – | – | – |
| HAR-TX β2, chimeric heregulin-toxin protein (other) MVVKPPQNKTESENTSDKPKRKKKGGKNGKNRRNRSHLIKCAEKEKTFCVNGGECFTVKDLSNPSRYLCKCPNEFTGDRCQNYVMASFYKAEELYKLMAEEGGSLAALTAHQACHLPLETFTRHRQPRGWEQLEQCGYPVQRLVALYLAARLSWNQVDQVIRNALASPGSGGDLGEAIREQPEQARLALTLAAAESERFVRQGTGNDEAGAANADVVSLTCPVAAGECAGPADSGDALLERNYPTGAEFLGDGGDVSFSTRGTQNWTVERLLQAHRQLEERGYVFVGYHGTFLEAAQSIVFGGVRARSQDLDAIWRGFYIAGDPALAYGYAQDQEPDARGRIRNGALLRVYVPRSSLPGFYRTSLTLAGGEAAGEVERLIGHPLPLRLDAITGPEEEGGRLETILGWPLAERTVVIPSAIPTDPRNVGGDLDPSSIPDKEQAISALPDYASQPGKPPREDLK | – | > 2 µg/mL | > 2 µg/mL | > 2 µg/mL | > 2 µg/mL | > 2 µg/mL | > 2 µg/mL |
